Assay [1] deals with KK-Ay diabetic model mice. The assay is described as follows: Long-term administration experiment, KK-Ay diabetic model mice. The class given is in vivo, mouse. The settings on record: 1 mg/Kg twice per week. On the procedure:
The drug is given twice per week, and the mice are fasted for 6 h each Wednesday and tested for fast blood glucose, meanwhile their food intake and weight variation are recorded. […] Specifically, long term administration is conducted according to the following protocol: the KK-Ay diabetic model mice are randomized into blank control group (injected only with PBS) and experimental group (injected with 1 mg/Kg of the fusion protein in Table 3). The drug is given twice per week; after 2 weeks, the mice are fasted for 6 h and tested for fasting blood glucose, and the blood glucose decrease of one experimental group is calculated by subtracting the fasting blood glucose of the experimental group from that of the blank control group.

Assay [2] concerns KK-Ay diabetic model mice. The assay is described as follows: Single injection hypoglycemic test, KK-Ay mouse obesity diabetic model. Type of assay: in vivo. Particulars: 1 mg/Kg, single injection through caudal vein, 0-240 min, fasted 2 h.
Assay [3] deals with T1, human GLP-1 receptor (Homo sapiens, UniProt P43220).
T1 construct: expressed in transfected cells; host or cells: CHO (CHO-hGLP1R)
Kind of assay: cAMP secretion test on human GLP-1 receptor CHO cell (CHO-hGLP1R). Particulars: for cAMP concentration: 30 min incubation, CHO-hGLP1R. Type of assay: cell-based.

Assay [4] deals with db/db diabetic model mice. Kind of assay: Single injection hypoglycemic test, db/db mouse obesity diabetic model. The class given is in vivo. The settings on record: 1 mg/Kg and 0.1 mg/Kg groups, single injection through caudal vein, 0-240 min.
Assay [5] deals with KK-Ay diabetic model mice. The assay is described as follows: Oral glucose tolerance test, KK-Ay diabetic model mice. The class given is in vivo, mouse. The settings on record: 1 mg/Kg and 0.1 mg/Kg subcutaneously, glucose 1 mg/g by gastric tube 6 h later.
The target of assay [6] is T1, human GLP-1 receptor. The assay is described as follows: Combining (binding) test with CHO engineering cell line expressing human GLP-1R, flow cytometry. Particulars: 4° C. 30 min. On the procedure: After PBS washing, human immunoglobulin γ chain antibody labeled with fluorescein FITC is added, and incubate at 4° C. for 30 min. After PBS washing, 1% paraformaldehyde in PBS is added, mix thoroughly and load the sample, read the mean fluorescence intensity of sample of each concentration in selected zone in the flow cytometry.
In general terms: Flow cytometry measures light scatter and fluorescence of single cells or particles in a stream.

From patent publication US8889619B2 (Beijing Dongfang Biotech Co., Ltd., priority 2010, dated 2014) come the findings set out here.

Broadly, the EC50 is the concentration that produces a half-maximal response. Read a high EC50 as a less potent agent.

T1 sequence (P43220 24-463): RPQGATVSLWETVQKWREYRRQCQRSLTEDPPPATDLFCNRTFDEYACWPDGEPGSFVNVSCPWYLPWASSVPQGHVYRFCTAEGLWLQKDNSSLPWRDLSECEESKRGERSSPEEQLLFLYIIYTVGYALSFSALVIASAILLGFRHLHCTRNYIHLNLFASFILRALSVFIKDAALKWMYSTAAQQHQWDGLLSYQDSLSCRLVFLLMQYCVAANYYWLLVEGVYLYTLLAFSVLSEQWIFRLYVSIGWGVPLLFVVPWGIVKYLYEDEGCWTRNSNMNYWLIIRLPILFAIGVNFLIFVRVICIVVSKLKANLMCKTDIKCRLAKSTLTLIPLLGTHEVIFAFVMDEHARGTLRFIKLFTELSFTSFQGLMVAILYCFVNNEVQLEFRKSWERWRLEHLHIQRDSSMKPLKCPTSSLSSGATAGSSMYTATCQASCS

B1: LAX09: Exendin-4 (SEQ ID NO: 1) fused via linker SEQ ID NO: 3 to Fc fragment of human IgG2; SEQ ID NO: 4 (protein)
chain: HGEGTFTSDLSKQMEEEAVRLFIEWLKDGGPSSGAPPPSGGGGAGGGGVECPPCPAPPVAGPSVFLFPPKPKDTLMISRTPEVTCVVVDVSHEDPEVQFNWYVDGVEVHNAKTKPREEQFNSTFRVVSVLTVVHQDWLNGKEYKCKVSNKGLPAPIEKTISKTKGQPREPQVYTLPPSREEMTKNQVSLTCLVKGFYPSDIAVEWESNGQPENNYKTTPPMLDSDGSFFLYSKLTVDKSRWQQGNVFSCSVMHEALHNHYTQKSLSLSPGK
modifications: The sequence is synthesized
For B1, the food intake result in assay [1] was “decreases”. Besides, the weight entry in assay [1] is “significantly reduced”. Further, the fast blood glucose result in assay [1] (fasted 6 h, versus PBS group) is listed as “significantly different from that of PBS group”. The “blood glucose of the mouse” value in assay [2] is given as “under 10 mmol/L”. In addition, the EC50 in the assay with human GLP-1 receptor [3] (cAMP in CHO-hGLP1R cells) is approximately 4.5 nM. Also, the cAMP concentration was found to be 2 with human GLP-1 receptor [3] (drug concentration 0.01 nM); 5 in the assay with human GLP-1 receptor [3] (drug concentration 0.1 nM); 31 in the assay with human GLP-1 receptor [3] (drug concentration 1 nM); 115 in the assay with human GLP-1 receptor [3] (drug concentration 10 nM); 153 in the assay with human GLP-1 receptor [3] (drug concentration 1000 nM). Further, in assay [4], the “hypoglycemic effect (blood glucose)” value is “best hypoglycemic effect”. In addition, in assay [5], the “ability to maintain normal blood glucose (oral glucose tolerance)” value is “same good ability to maintain normal blood glucose”. The Mean fluorescence intensity with human GLP-1 receptor [6] (LAX09 mass concentration 0.098 μg/mL) was 14.12; in the assay with human GLP-1 receptor [6] (LAX09 mass concentration 0.246 μg/mL) it was 17.53; in the assay with human GLP-1 receptor [6] (LAX09 mass concentration 0.614 μg/mL) it was 21.78; in the assay with human GLP-1 receptor [6] (LAX09 mass concentration 1.536 μg/mL), 38.01; with human GLP-1 receptor [6] (LAX09 mass concentration 3.84 μg/mL), 57.03; with human GLP-1 receptor [6] (LAX09 mass concentration 9.6 μg/mL), 81.54. Further, the Mean fluorescence intensity with human GLP-1 receptor [6] (LAX09 mass concentration 24 μg/mL) was determined as 94.81; with human GLP-1 receptor [6] (LAX09 mass concentration 60 μg/mL), 121.98.
